The text below walks through data of patent US20070286806A1, “Methods and Compositions for Modulating a Steroid Receptor” (Mount Sinai Hospital, priority 2004, published 2007).

Assay [1] concerns the target myometrial progesterone receptors. Conditions: cited from earlier work.
The target in assay [2] is T1, PR DNA binding domain / PRE (Homo sapiens, UniProt P06401).
T1 construct: PR 556-650 was also inserted downstream of T7 promoter of pcDNA3; made in house; host or cells: rabbit reticulocyte lysate (TNT, Promega); GST-PSF from E. coli
T1 sequence (P06401 556-650): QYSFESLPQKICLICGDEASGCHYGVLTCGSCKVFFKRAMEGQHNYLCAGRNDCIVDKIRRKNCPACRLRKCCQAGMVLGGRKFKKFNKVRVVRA
Put plainly: Electrophoretic Mobility Shift Assay of PR binding to PRE. As to conditions: in vitro translated PRDBD, 32P-labeled PRE. The method, then:
(§1) FIG. 8. PSF interferes with binding of PR DNA binding domain to PRE. (A) Electrophoretic mobility shift assay was performed with ^32P-labeled PRE incubated with in vitro translated PRDBD (1, 2, 5μl in lane 3 to 5 and 2 μl in lane 6 to 11) and increasing amount of bacterially expressed GST (lane 6 to 8) or GST PSF (lane 9 to 11). TNT lysate (lane 2) was used as negative control. (B) PR-Nuclear extraction (1 and 2 μg) as described in the method was incubated with PRE oligo in a dose dependent manner (lane 2 and 3). Anti-PR antiserum (AB-52) was added to the incubation mixture (lane 4). Addition of increasing dose (1 and 2 μl) of GST or GST-PSF in the same reaction as lane 3 was shown in lane 6, 7 and 9, 10. In the control experiments (lane 5 and 8), GST or GST-PSF was incubated with PRE without adding PR-nuclear extract. All reactions contain 10 nM progesterone.
(§2) For immunoprecipitation of the endogenous PR and PSF, T47D cells cultured in 150 mm dishes were lysed in 800 μl NETN buffer containing 150 mM NaCl plus protease inhibitor cocktail. […] Gels were treated with Enhancer (NEN, Boston, US) dried and analyzed by autoradiography. • Cell culture and transient transfection: SHM cells and 293T cells were maintained in DMEM plus 5% FCS (Sigma) as described before (22). […] Luciferase activity was determined by using the luciferin reagent (Promega) according to manufacture's protocol. […]

In assay [3] the target is T2, PR DNA binding domain / PRE (Homo sapiens, UniProt P06401).
T2 construct: PR 556-650 was also inserted downstream of T7 promoter of pcDNA3; made in house; host or cells: rabbit reticulocyte lysate (TNT, Promega); GST-PSF from E. coli
T2 sequence (P06401 1-933): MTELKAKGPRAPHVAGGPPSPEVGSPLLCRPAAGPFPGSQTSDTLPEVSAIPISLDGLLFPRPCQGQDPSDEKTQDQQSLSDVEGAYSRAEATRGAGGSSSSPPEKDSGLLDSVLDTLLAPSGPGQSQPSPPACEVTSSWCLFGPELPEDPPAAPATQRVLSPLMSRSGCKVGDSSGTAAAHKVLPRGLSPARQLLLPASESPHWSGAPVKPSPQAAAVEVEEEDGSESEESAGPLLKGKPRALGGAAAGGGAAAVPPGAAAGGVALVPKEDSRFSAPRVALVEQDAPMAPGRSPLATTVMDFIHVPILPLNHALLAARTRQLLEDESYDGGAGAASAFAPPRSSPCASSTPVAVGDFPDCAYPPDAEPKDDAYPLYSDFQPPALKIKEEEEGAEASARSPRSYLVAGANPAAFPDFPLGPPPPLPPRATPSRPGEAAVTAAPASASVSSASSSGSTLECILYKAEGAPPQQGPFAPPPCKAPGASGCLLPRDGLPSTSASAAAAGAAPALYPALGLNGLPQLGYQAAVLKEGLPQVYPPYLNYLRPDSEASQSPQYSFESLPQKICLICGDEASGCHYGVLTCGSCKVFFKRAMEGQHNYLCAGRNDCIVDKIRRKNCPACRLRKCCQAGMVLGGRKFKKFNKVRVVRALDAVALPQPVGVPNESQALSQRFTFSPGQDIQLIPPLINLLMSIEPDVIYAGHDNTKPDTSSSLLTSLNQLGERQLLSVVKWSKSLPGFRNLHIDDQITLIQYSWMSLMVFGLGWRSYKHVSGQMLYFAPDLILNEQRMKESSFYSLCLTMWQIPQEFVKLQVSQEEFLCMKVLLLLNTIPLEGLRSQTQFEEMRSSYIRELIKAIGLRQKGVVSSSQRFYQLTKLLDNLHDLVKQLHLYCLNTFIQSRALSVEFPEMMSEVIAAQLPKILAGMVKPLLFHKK
Described as above. Conditions: nuclear extract of 293T cells transfected with Flag-PRB, increasing doses. The method, then:
as §1, §2

What is called Kd is the constant that tells how readily two partners part at equilibrium.

Consider `CC(=O)[C@H]1CC[C@H]2[C@@H]3CCC4=CC(=O)CC[C@]4(C)[C@H]3CC[C@]12C` [progesterone], for which, in assay [1], the Kd is 1 nM.

B1: GST-PSF: bacterially expressed GST-PSF fusion protein (protein)
chain: MSRDRFRSRGGGGGGFHRRGGGGGRGGLHDFRSPPPGMGLNQNRGPMGPGPGQSGPKPPIPPPPPHQQQQQPPPQQPPPQQPPPHQPPPHPQPHQQQQPPPPPQDSSKPVVAQGPGPAPGVGSAPPASSSAPPATPPTSGAPPGSGPGPTPTPPPAVTSAPPGAPPPTPPSSGVPTTPPQAGGPPPPPAAVPGPGPGPKQGPGPGGPKGGKMPGGPKPGGGPGLSTPGGHPKPPHRGGGEPRGGRQHHPPYHQQHHQGPPPGGPGGRSEEKISDSEGFKANLSLLRRPGEKTYTQRCRLFVGNLPADITEDEFKRLFAKYGEPGEVFINKGKGFGFIKLESRALAEIAKAELDDTPMRGRQLRVRFATHAAALSVRNLSPYVSNELLEEAFSQFGPIERAVVIVDDRGRSTGKGIVEFASKPAARKAFERCSEGVFLLTTTPRPVIVEPLEQLDDEDGLPEKLAQKNPMYQKERETPPRFAQHGTFEYEYSQRWKSLDEMEKQQREQVEKNMKDAKDKLESEMEDAYHEHQANLLRQDLMRRQEELRRMEELHNQEMQKRKEMQLRQEEERRRREEEMMIRQREMEEQMRRQREESYSRMGYMDPRERDMRMGGGGAMNMGDPYGSGGQKFPPLGGGGGIGYEANPGVPPATMSGSMMGSDMRTERFGQGGAGPVGGQGPRGMGPGTPAGYGRGREEYEGPNKKPRF
modifications: left off: a dimerising Fc or GST
notes: bacterially expressed GST-PSF fusion protein
Turning to B1, the “association of PRDBD to PRE” value in assay [2] is on record as “decreased association of PRDBD to PRE”. In assay [3], the “association of full-length PR to PRE” value was “decrease of association of PR to PRE”.
